Assay results from PMC5261807 (2017).
Each block holds one binder with its values, some of them ahead of it. Non-standard residues stand in square brackets, D forms with d. Primed or numbered codes have the meaning given here. No end group written: not given here. Me2a″ = asymmetric dimethylarginine (Rme2a); Arg(Me2a) = CN(C)C(=N)NCCC[C@H](N)C(=O)O; Lys(Me3) = C[N+](C)(C)CCCC[C@H](N)C(=O)O; Arg(Me2s) = CN=C(NC)NCCC[C@H](N)C(=O)O; pT = C[C@@H](OP(=O)(O)O)[C@H](N)C(=O)O; Lys(Me2) = CN(C)CCCC[C@H](N)C(=O)O; Me2s = symmetric dimethyl (on Arg); pS = N[C@@H](COP(=O)(O)O)C(=O)O; Lys(Me) = CNCCCC[C@H](N)C(=O)O; Me3″ = trimethyl lysine (Kme3); Me3 = trimethyl (on Lys)

Key:
[1] = molecular target: T1, Bdf1 bromodomain 1 (GST-tagged, WT) (Saccharomyces cerevisiae (strain ATCC …, UniProt P35817)); experiment: histone peptide array probed with recombinant GST-bromodomain, signal normalised to myc peptide control
T1 chain: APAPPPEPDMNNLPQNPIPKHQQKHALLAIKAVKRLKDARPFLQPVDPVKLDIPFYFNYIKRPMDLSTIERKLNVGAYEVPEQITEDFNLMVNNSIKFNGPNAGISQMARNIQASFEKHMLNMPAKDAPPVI

[2] = molecular target: T2, Bdf1 bromodomain 2 (GST-tagged, WT) (Saccharomyces cerevisiae (strain ATCC …, UniProt P35817)); experiment: as above
T2 chain: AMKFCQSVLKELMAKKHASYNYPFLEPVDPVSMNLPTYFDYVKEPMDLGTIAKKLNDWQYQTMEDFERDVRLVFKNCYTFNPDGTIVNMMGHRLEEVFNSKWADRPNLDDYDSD

Binder: SGRGKGGKGLGKGGAKRHR (S G Rme2a G Kac G G Kac G L G Kac G G A K R H R)
binding score [1]: 0.29 | binding score [2]: 0.386

Binder: PRKQLATKAA[Arg(Me2a)]K[pS]APATGG
binding score [1]: 0 | binding score [2]: 0

Binder: A[Arg(Me2s)][pT]KQTARKSTGGKAPRKQ
binding score [1]: 0 | binding score [2]: 0.00502

Binder: SGRGKGGKGLGKGGAKRHR (pS G R G Kac G G K G L G K G G A K R H R)
binding score [1]: 0.00108 | binding score [2]: 0.069

Binder: ARTKQTARKSTGGKAPRKQ (A R T Kme1 Q T A Rme2s Kac S T G G K A P R K Q)
binding score [1]: 0.0247 | binding score [2]: 0.0265

Binder: ARTKQTARKSTGGKAPRKQ (A Rme2a T Kme1 Q T A Rme2a Kac S T G G K A P R K Q)
binding score [1]: 0.0124 | binding score [2]: 0.00325

Binder: PRKQLATKAARK[pS]APATGG
binding score [1]: 0 | binding score [2]: 0

Binder: PDPAK(Ac)SAPAPKK(Ac)GSKKAVT
binding score [1]: 0 | binding score [2]: 0.0186

Binder: PRKQLATKAAR(Me2a″)K(Me3″)SAPATGG
binding score [1]: 0 | binding score [2]: 0.00167

B1: H4 1-19 (peptide)
chain: SGRGKGGKGLGKGGAKRHR
modifications: histone peptides carry modifications given inline in the sequence and in columns 4-7 (Kac, Kme1/2/3, Rme2a/s, Cit, pS/pT); N-terminus free or acetylated
binding score [1]: 0.00897 | binding score [2]: 0

Binder: ARTKQTARKSTGGKAPRKQ (A Rme2s T Kac Q T A Rme2s Kme3 S T G G K A P R K Q)
binding score [1]: 0.00538 | binding score [2]: 0.00521

Binder: PDPAK(Ac)SAPAPKKG[pS]KKAVT
binding score [1]: 0.00412 | binding score [2]: 0

Binder: ARTKQTARKSTGGKAPRKQ (A Rme2a T Kac Q T A Rme2s Kac S T G G K A P R K Q)
binding score [1]: 0.0518 | binding score [2]: 0.0869

Binder: PRKQLATKAARK(Ac)SAPATGG
binding score [1]: 0 | binding score [2]: 0.00915

Binder: SGRGKGGKGLGKGGAKRHR (S G Rme2a G Kac G G K G L G K G G A K R H R)
binding score [1]: 0 | binding score [2]: 0.0707

Binder: ARTKQTARKSTGGKAPRKQ (A Rme2a T Kme1 Q T A R Kme2 S T G G K A P R K Q)
binding score [1]: 0.00538 | binding score [2]: 0.0062

Binder: SGRGKGGKGLGKGGAKRHR (S G R G Kac G G Kac G L G Kac G G A Kac R H R)
binding score [1]: 0.561 | binding score [2]: 0.944

Binder: ARTKQTA[Arg(Me2s)][Lys(Me2)]S[pT]GGKAPRKQ
binding score [1]: 0.0052 | binding score [2]: 0.00915

Binder: A[Arg(Me2a)]T[Lys(Me3)]QTA[Arg(Me2s)][Lys(Me)]STGGKAPRKQ
binding score [1]: 0 | binding score [2]: 0

Binder: ARTKQTARKSTGGKAPRKQ (A R T Kme2 Q T A Rme2s Kme3 S T G G K A P R K Q)
binding score [1]: 0.00592 | binding score [2]: 0

Binder: ARTKQTA[Arg(Me2s)][Lys(Me2)][pS]TGGKAPRKQ
binding score [1]: 0.000179 | binding score [2]: 0.00541

Binder: ARTKQTARKSTGGKAPRKQ (A R T K Q T A R Kac S T G G Kac A P R K Q)
binding score [1]: 0.108 | binding score [2]: 0.209

Binder: ARTKQTA[Arg(Me2s)]K(Me)S[pT]GGKAPRKQ
binding score [1]: 0 | binding score [2]: 0.00836

Binder: ARTKQTARKSTGGKAPRKQ (A Rme2s T Kme2 Q T A Rme2a Kme1 S T G G K A P R K Q)
binding score [1]: 0 | binding score [2]: 0

Binder: SGRGKQGGK(Ac)ARAK(Ac)AKSRSS
binding score [1]: 0.0104 | binding score [2]: 0.117

Binder: AR[pT]K(Ac)QTARKSTGGKAPRKQ
binding score [1]: 0.0321 | binding score [2]: 0.0271

Binder: ARTKQTARKSTGGKAPRKQ (A Rme2a T Kme3 Q T A Rme2a Kme1 S T G G K A P R K Q)
binding score [1]: 0 | binding score [2]: 0

Binder: AR[pT]K(Me)QTARKSTGGKAPRKQ
binding score [1]: 0 | binding score [2]: 0.00679

Binder: ARTKQTARKSTGGKAPRKQ (A R T Kme2 Q T A Rme2s Kac S T G G K A P R K Q)
binding score [1]: 0.0301 | binding score [2]: 0.0564

Binder: A[Arg(Me2a)]TKQTARKSTGGKAPRKQ
binding score [1]: 0.0095 | binding score [2]: 0.00462

Binder: SGRGKGGKGLGKGGAKRHR (S G Rme2s G Kac G G Kac G L G K G G A K R H R)
binding score [1]: 0.123 | binding score [2]: 0.275

Binder: ARTKQTARKSTGGKAPRKQ (A Rme2s T Kme1 Q T A Rme2s Kme3 S T G G K A P R K Q)
binding score [1]: 0.00161 | binding score [2]: 0

Binder: PDPAKSAPAPKKGSKKAVT (not fully specified)
binding score [1]: 0 | binding score [2]: 0.00266

Binder: ARTKQTARKSTGGKAPRKQ (A R T K Q T A R Kme2 pS T G G K A P R K Q)
binding score [1]: 0.00108 | binding score [2]: 0

Results, then the binder that gave them:

binding score [1]: 0 | binding score [2]: 0
Binder: ARTKQTARKSTGGKAPRKQ (A Rme2s pT Kme2 Q T A R K S T G G K A P R K Q)

binding score [1]: 0 | binding score [2]: 0
Binder: ARTKQTARKSTGGKAPRKQ (A Rme2a T Kme2 Q T A R Kme2 S T G G K A P R K Q)

binding score [1]: 0 | binding score [2]: 0
Binder: ARTKQTARKSTGGKAPRKQ (A R T K Q T A Rme2a K S T G G K A P R K Q)

binding score [1]: 0.0484 | binding score [2]: 0.0363
Binder: ARTK(Me3)QTAR(Me2s)K(Ac)STGGKAPRKQ

binding score [1]: 0.00305 | binding score [2]: 0.00148
Binder: ARTKQTARKSTGGKAPRKQ (A R T K Q T A Rme2s Kme3 pS T G G K A P R K Q)

binding score [1]: 0.18 | binding score [2]: 0.258
Binder: SGRGKGGKGLGKGGAKRHR (S G R G K G G Kac G L G Kac G G A K R H R)

binding score [1]: 0.00628 | binding score [2]: 0.00561
Binder: ART[Lys(Me3)]QTA[Arg(Me2s)][Lys(Me2)]STGGKAPRKQ

binding score [1]: 0.0405 | binding score [2]: 0.131
Binder: ARTKQTARKSTGGKAPRKQ (A Rme2s T Kac Q T A Rme2s Kac S T G G K A P R K Q)

binding score [1]: 0.00789 | binding score [2]: 0
Binder: PRKQLATKAA[Arg(Me2a)][Lys(Me2)]SAPATGG

binding score [1]: 0.00628 | binding score [2]: 0
Binder: ARTKQTARKSTGGKAPRKQ (A Rme2s T Kme1 Q T A Rme2a Kme3 S T G G K A P R K Q)

binding score [1]: 0 | binding score [2]: 0
Binder: PRKQLATKAAR[Lys(Me3)][pS]APATGG

binding score [1]: 0.0104 | binding score [2]: 0.0385
Binder: ARTKQTARKSTGGKAPRKQ (A Rme2s T Kme3 Q T A Rme2s Kac S T G G K A P R K Q)

binding score [1]: 0 | binding score [2]: 0.00246
Binder: A[Arg(Me2a)][pT][Lys(Me2)]QTARKSTGGKAPRKQ

binding score [1]: 0.0387 | binding score [2]: 0.0867
Binder: AR(Me2a″)TK(Ac)QTAR(Me2a″)K(Ac)STGGKAPRKQ

binding score [1]: 0.00161 | binding score [2]: 0.00561
Binder: AR(Me2s)TK(Ac)QTAR(Me2s)K(Me)STGGKAPRKQ

binding score [1]: 0.00699 | binding score [2]: 0.00207
Binder: A[Arg(Me2a)]T[Lys(Me)]QTARK(Ac)STGGKAPRKQ

binding score [1]: 0 | binding score [2]: 0.231
Binder: [pS]GRGK(Ac)QGGKARAK(Ac)AKSRSS
